Where two headings read alike, the source gives them in different places.
Key:
SEC [1] = molecular target: the molecule itself; assay: SEC
SEC [2] = molecular target: the molecule itself; assay: SEC; remark: listed apart in the source

| Protein | stoichiometry N (SEC [1]) | stoichiometry N (SEC [2]) |
| --- | --- | --- |
| CmDnm1 (native), mitochondrial fission dynamin from Cyanidioschyzon merolae (natural protein, UniProt Q84Y91 1-768, looked up) MERLIPIVNKLQDLFAETGLDSPIDLPQIMVVGAQSSGKSSVLENVVGESIFPRGTGIVTRRPIVVQLYCTARERLNQSGAPDNMFNEDGSYVLSDGAPTDPRSIPPGAENQAYAEFLHKPGVRFYNFDDVRAEIERETDRVTGKNKGISPKAINLRVYSPHVVNLTVVDLPGLTKVPVGDQPSDIERLIRAMVLSYIERPNAIILAVHPATMDLATSDALQIARQADPEGRRTLGVITKLDLMDKGTDAMEMLTGKVIPLKLGYIGVICRGPADLRAGKSIQQAREDEIRFFRSHPVYRRLLPQLGTNTLARTLSTLLMKHIRDTLPSIRQKMSQQLAEWRKELQTLGPAFEGADDLGGALLNVINRYSSEFAKSLEGNSQQTVNTQELYGGARINYIFNDIYAKELQSMNAFEGLTREDIRTAIRNATGHRSPLFVPELAFELLVKKQITHFVPPAYSCVDLVYDELVRLALNCETELLQRYENLRSEILACAQNLLRELKQPCLEMVQNLIAMETSYISVNHKDFIGGNKAMSQLVRARMEEEERRTRSAKAANSTDNAANSAPKESNANDNRILQPRRRNQDENAKKNDDARRKDDKSPNKTDASNAEKDARSDRNPRGDPTMDNFFNEADEDEEDGNERRNRGLHTLPSVPEHLKAGEVSSDRDRDDIELIQTLLASYFDVVRVNMMDMVPKAIMSFLVLRARDRMQSRLVADLYKPERMSELLNESSDVAERRATAKRMVDLLQRGMAVINEVRDVHVKEEI | 4 | – |
| CmDnm1 GHRS431-434AAAA, self-assembly limiting stalk mutant (natural protein, Cyanidioschyzon merolae, UniProt Q84Y91 1-768, looked up) MERLIPIVNKLQDLFAETGLDSPIDLPQIMVVGAQSSGKSSVLENVVGESIFPRGTGIVTRRPIVVQLYCTARERLNQSGAPDNMFNEDGSYVLSDGAPTDPRSIPPGAENQAYAEFLHKPGVRFYNFDDVRAEIERETDRVTGKNKGISPKAINLRVYSPHVVNLTVVDLPGLTKVPVGDQPSDIERLIRAMVLSYIERPNAIILAVHPATMDLATSDALQIARQADPEGRRTLGVITKLDLMDKGTDAMEMLTGKVIPLKLGYIGVICRGPADLRAGKSIQQAREDEIRFFRSHPVYRRLLPQLGTNTLARTLSTLLMKHIRDTLPSIRQKMSQQLAEWRKELQTLGPAFEGADDLGGALLNVINRYSSEFAKSLEGNSQQTVNTQELYGGARINYIFNDIYAKELQSMNAFEGLTREDIRTAIRNATAAAAPLFVPELAFELLVKKQITHFVPPAYSCVDLVYDELVRLALNCETELLQRYENLRSEILACAQNLLRELKQPCLEMVQNLIAMETSYISVNHKDFIGGNKAMSQLVRARMEEEERRTRSAKAANSTDNAANSAPKESNANDNRILQPRRRNQDENAKKNDDARRKDDKSPNKTDASNAEKDARSDRNPRGDPTMDNFFNEADEDEEDGNERRNRGLHTLPSVPEHLKAGEVSSDRDRDDIELIQTLLASYFDVVRVNMMDMVPKAIMSFLVLRARDRMQSRLVADLYKPERMSELLNESSDVAERRATAKRMVDLLQRGMAVINEVRDVHVKEEI | – | 4 |
